B1: TPR t1 (parent)
chain: GACCAAUCUGCCCUCAGAGCUCGAGAACAUCUUCGGAUGCAGAGGAGGCAGGCUUCGGUGGCGCGAUAGCGCCAACGUCCUCAACCUCCAAUGCAUCCCACCACAUGAUGAUGCCUGAAGAGCCUUGGUUUUUUG

Variants of: B1
Assay: polymerase ribozyme fitness, log enrichment relative to wild type (log ratio); higher = more active; in vitro selection for triplet polymerase activity
Outline: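 Mutant libraries of each subunit of a heterodimeric triplet polymerase ribozyme were built by PCR and transcribed. Each library went through one round of in vitro selection in triplicate: annealing with biotinylated primer, partner subunit and triplets, frozen incubation at −7 °C, gel excision of extended constructs, streptavidin-bead capture and RT-PCR. Input and output libraries were Illumina-sequenced; only genotypes with ≥10 input reads and ≥1 read per output were kept. Fitness is log2(genotype enrichment/wild-type enrichment), using inverse-variance-weighted replicate averages.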

Variant | polymerase ribozyme fitness (log ratio)
GACCAAUCUGCCCUCAGAGAUCGAGAACAUCUUCGGAUGCAGAGGAGGCAGGCUUCGGUGGUGCGAUAGCGCCAACGUCCUCAACCUCCAAUGCAUCCCACCACAUGAUGAUGCCUGAAGAGCCUUGGUUUUUUG | -2.95
GACCAAUCUGCCCUCAGAGAUCGAGAACAUCUUCGGAUGCAGAGGAGGCAGGCUUCGGUGGCGCGAUAGCGCCAACGUACUCAACCUCCAAUGCAUCCCACCACAUGAUGAUGCCUGAAGAGCCUUGGUUAUUUG | -3.6
GACCAAUCUGCCCUCAGAGAUCGAGAACAUCUUCGGAUGCAGAGGAGGCAGGCUUCGGUGGCGCGAUAGUGCCAAGGUCCUCAACCUCCAAUGCAUCCCACCACAUGAUGAUGCCUGAAGAGCCUUGGUUUUUUG | -3.5
GACCAAUCUGCCCUCAGAGAUCGAGAACAUCUUCGGAUGCAGAGGAGGCAGGCUUAGGUGGCGCGAUAGCGCCAAAGUCCUUAACCUCCAAUGCAUCCCACCACAUGAUGAUGCCUGAAGAGCCUUGGUUUUUUG | -4.8
GACCAAUCUGCCCUCAGAGAUCCAGAACAUCUCCGGAUGCAGAGGAGGCAGGCUUCGGUGGUGCGAUAGCGCCAACGUCCUCAACCUCCAAUGCAUCCCACCACAAGCUGAUGCCUCAAGAGCCUUGGUUUUUUG | -8.64
GACCAAUCUGCCCUCAGAGAUCGAGAACAUCUUCGGAUGCAGAGGAGGCAGGCUUCGGUGGCGCGAUAGCGCCAACGUUCUCAACCUCCAAUGCAUCCCACCACAUGAUGAUGCCUGAAGAGCCUUGGUUUUUUG | -2.47
GACCAAUCUGCCCUCAGAGAUCGAGAACAUCUUCGGAUGCAGAGGAGGCAGGCUUAGGUGGCGCGAUAGCGCCAACGUCCUUAACCUCCAAUGCAUCCCACCACAUGAUGAUGCCUGAAGAGCCUUGGUUUUUUG | -3.22
GACCAAUCUGCCCUCAGAGAUCGAGAACAUCUUCGGAUGCAGAGGAGGCAGGCUUCGGUGGCGCGAUAGCGCCAACGUCCUCAACCUCCAAUGCAUCCCACCACAUGAUGAUGCCUGAAGAGCGUUGGUUUUUUG | -0.976
GACCAAUCUGCCCUCAGAGAUCGAGAACAUCUUCGGAUGCAGAGGAGGCAGGCUUCGGUGGCGCGAUAGCGCUAACGUCCUCAACCUCCAAUGCAUUCCACCACAUGAUGAUGCCUGAAGCGCCUUGGUUUUUUG | -1.59
GACCAAUCUGCCCUCAGAGAUCGAGAACAUCUUCGGAUGCAGAGGAGGCAGGCUUCGGUGGCGCGAUAGCGCCAACGUCCUCAACCUCCAAUGCAUACCACCACAUGAUGAUGCCUGAAGAGCCUUGGUUUUUUG | -5.7
GACCAAUCUGCCCUCAGAGAUCGAGAACAUCUUCGGAUGCAGAGGAGGCAGGCUUCGGUGGCGCGAUAGCGCCAACGUCCUUAACCGCCAAUGCAUCCCACAACAUGAUGAUGCCUGAAGAGCCUUGGUUUUUUG | -4.69
GACCAAUCUGCCCUCAGAGAUCGAGAACAUCUUCGGAUGCAGAGGAGGCAGGCUUUGGUGGCGCGAUAGCGCCAACGUCUUCAACCUCCAAUGCAUCCCACCACAUGAUGAUGCCUGAAGAGCCUUGGUUUUUUG | -4.41
GACCAAUCUGCCCUCAGAGAUCGAGAACAUCUUCGGAUGCAGAGGAGGCAGGCUUCGGUGGCGCGAUAGCGCCAACGUCCUCAACGUCUAAUGCAUCCCACCACAUGAUGAUGCCUGAUGAGCCUUGGUUUUUUG | -6.11
GACCAAUCUGCCCUCAGAGAUCGAGAACAUCUUCGGAUGCAGAGGAGGCAGGCUUCGGUGGCGCGAUAGCGCCAACGUUCUCAACCUCCAAUGCAUUCCACCACAUGAUGAUGCCUGAAGAGCAUUCGUUUUUUG | -2.63
GACCAAUCUGCCCUCAGAGAUCGAGAACAUCUUCGGAUGUAGAGGAGGCAGGCUUCGGUGGCGCGAUAGCGCCAACGUCCUCAACCUCCAAUGCAUCCCACCACAUGAUGAUGCCUGAAGAGCCUUGGUUUUUUG | -3.35
GACCAAUCUGCCCUCAGAGAUCGAGAACAUCUUCGGAUACAGAGGAGGCAGGCUUCGGUGGCGCGAUAGCGCCAACGUCUUCAACCUCCACUGCAUCCCACCACAUGAUGAUGCCUGAAGAGCCUUGGUUUUUUG | -6.34
GACCAAUCUGCCCUCAGAGAUCGAGAACAUCUUCGGAUGCAGAGGAGGUAGGCUUCGGUGGCGCGAUAGCGCCAACGUCCUCAACCUCCAAUGCAUCCCACCACAUGAUGAUGCCUGAAGAGCCUUGGUUUUUUG | -3.79
GACCAAUCUGCCCUCAGAGAUCGAGAACAUCUUCGGAUGCAGAGGAGGCAGGAUUCAGUGGCGCGAUAGCGCUAACGUUCUCAACCUCCAAUGCAUCCCACAACAUGAUGAUGCCUGAAGCGCCUUGGUUUUUUG | -4.43
GACCAAUCUGCCCUCAGAGAUCGAGAACAUCUUCGGAUGCAGAGGAGGCAGGCUUCGGUGGCGCGAUAGCGCCAACGUCCUCAACAUCCAAUGCAUCCCACCACAUGAUGACGCCUAAAGAGCCUUGGUUUUUUG | -5.64
GACCAAUCUGCCCUCAGAGAUCGAGAACAUCUUCGGAUGCAGAGGAGGCAGGCUUCGGUGGGGCGAUAGCGCCAACGUCCUCAACCUCCAAUGCAUCCCACCACAUGAUGAUGCUUGAAGAUCCUUGGUUUUUUG | -6.79
GACCAAUCUGCCCUCAGAGAUCGAGAACAUCUUGGGAUGCAGAGGAGGCAGGCUUCGGUGGCGCGAUAGCGCCAACGUCCUCAAUCUCCCAUGCAUCCCACCACAUGAUGAUGCCUGAACAGCCUUGGUUUUUUG | -5.64

From the RNAGym collection of RNA variant scans (doi:10.1073/pnas.2313332121)
